The results in this text go back to publication PMC3062784 (Biochimica et Biophysica Acta, 2011).

The data set “native gel or EMSA” concerns the molecule itself. Kind of data set: native gel or EMSA. A general note: Mobility shift assays separate free from complexed probe on a gel.
The data set “cross-linking” concerns the molecule itself. As to the kind of experiment: cross-linking.

“And” between values parts separate entries of the source, which are not always exact repeats. Equal values may be shown once.

B1: C-terminally triple HA-tagged Pun1p expressed via the MET25 promoter from plasmid YEpM-PUN1-HA (natural protein, S. cerevisiae, UniProt Q06991 1-263, looked up)
chain: MRNFFTLFFAAIFSLGALILAIVACAGSTKNYSPINKIYCAELDLSQMKVSTVLPSLSSATLSSLGLPSYINIGLWSYCTVDSSHNIQSCSSPHGIQNFNLSSLVYDNINNNEALELMDSVASVVLPEKLKSKMTYYNNLVKCMFITILIGIVLTFVNLVFNVLRWIIHIRPLTWFGAFFSFFAFAALLVSIGSCLGTYSYIKYILKHNYSDYGISMSIGRNYQGLMWGAVVGALLNFILWCSVRSRPTVIYANAPIEEKPLI
The stoichiometry N is a count of units in the complex or per binding partner. Regarding B1, the “stoichiometry N” value in the data set “native gel or EMSA” was 10 and 12 and 8; in “cross-linking”, 2 and 4 and 6.
